Target: the molecule itself
Assay: SEC; analytical SEC of TcoPYK alone, ENRICH 650 10/30 column, BioRAD gel filtration standard

B1: recombinant T. congolense pyruvate kinase (enzyme, UniProt G0UYF4 1-499, looked up)
chain: MSQLQHNIGLSIFEPVAKHRANRIICTIGPSTQSVEALKGLMKSGMSVARMNFSHGSYEYHQTTINNVRAAAAELGLHIGIALDTKGPEIRTGLFKDGEATYAPGDTVLVTTDPAFEKIGTKEKFYVDYPQLPNVVRPGGLIYVDDGVLTLRVLSKEDDCTLKCHVNNHHRLTDRKGINLPGCEVDLPAVSEKDRKDLQFGVEQGVDMIFASFIRTADQVREVRAALGEKGKDTLIISKIENHQGVQNIDAIIEASDGIMVARGDLGVEIPAEKVVVAQMCIISKCNVAGKPVICATQMLESMTTNPRPTRAEVTDVANAVFNGADCVMLSGETAKGKYPNEVVQYMVRICIEAQSATHDSVMFNSIKNLQKIPMSPEEAVCSSAVSSAFEVQAKAILVLSNTGRSARLISKYRPNCPIICATTRLLTCRQLNVTRSVESVYYDVDAHGEDNDREKRVQLGVDWAKTKGYVSAGDVMVIVHADHSVKGYPNQTRLVRVR
notes: also called TcoPYK; source: E. coli BL21(DE3), purified (details in the Supplementary Information)
With B1 the “stoichiometry N” value was 4.
